In patent publication US20220363738A1:

The substances below were run against purified fragment of human Calnexin containing Amino acid 1-481 fused to human FC region (FC-CNX) (human) (UniProt P27824) (assay: ELISA, coat CNX-Fc (figure title), antibody 1 ug/ml, HRP secondary, OD450 normalised to BSA).
Sequence of purified fragment of human Calnexin containing Amino acid 1-481 fused to human FC region (FC-CNX) (human) (P27824 21-481 limits assumed, form in doubt): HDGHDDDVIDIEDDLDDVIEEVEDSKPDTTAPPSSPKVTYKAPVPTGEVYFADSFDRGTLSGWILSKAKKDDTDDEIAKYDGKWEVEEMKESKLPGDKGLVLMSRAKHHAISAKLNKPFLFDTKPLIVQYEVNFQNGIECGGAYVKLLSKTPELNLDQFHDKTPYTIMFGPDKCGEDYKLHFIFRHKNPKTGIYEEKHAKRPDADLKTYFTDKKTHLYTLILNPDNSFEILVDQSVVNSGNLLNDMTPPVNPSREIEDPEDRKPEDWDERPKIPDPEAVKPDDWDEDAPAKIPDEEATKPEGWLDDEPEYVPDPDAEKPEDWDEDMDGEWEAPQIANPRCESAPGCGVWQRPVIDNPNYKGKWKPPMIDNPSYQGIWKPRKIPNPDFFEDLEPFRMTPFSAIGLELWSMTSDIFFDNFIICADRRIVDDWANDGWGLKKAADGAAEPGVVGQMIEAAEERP

OD450 (Normalised to BSA) | Substance
0.51 | ctrl hIgG (antibody)
4.79 | CNX ab10286 (antibody)
0.9 | CRT ab92516 (antibody)
